{
  "source": "paper PMC11116518",
  "key": {"[1]": {"target": "PlpD I117C with an N-terminal TwinStrepII tag (P. aeruginosa (strain PA14)) (UniProt Q9HYQ6)", "test": "cross-linking; in vivo disulfide-bond formation: cysteine mutants expressed in P. aeruginosa SEH88; intact cells in ice-cold PBS with 0.2 mM 4-DPS (or ethanol, mock) for 30 min; TCA precipitation, SDS-PAGE, immunoblot with the anti-PlpD C-terminal peptide antiserum"}, "[2]": {"target": "PlpD I532C with an N-terminal TwinStrepII tag (P. aeruginosa (strain PA14)) (UniProt Q9HYQ6)", "test": "cross-linking; in vivo disulfide-bond formation, time course: cells in ice-cold PBS with 0.2 mM 4-DPS for 0, 2, 5, 15, 30, 60, 90 and 120 min; immunoblot with the anti-PlpD C-terminal peptide antiserum"}, "[3]": {"target": "PlpD I532C with an N-terminal TwinStrepII tag (P. aeruginosa (strain PA14)) (UniProt Q9HYQ6)", "test": "cross-linking; in vivo disulfide-bond formation: cysteine mutants expressed in P. aeruginosa SEH88; intact cells in ice-cold PBS with 0.2 mM 4-DPS (or ethanol, mock) for 30 min; TCA precipitation, SDS-PAGE, immunoblot with the anti-PlpD C-terminal peptide antiserum"}, "[4]": {"target": "PlpD M249C with an N-terminal TwinStrepII tag (P. aeruginosa (strain PA14)) (UniProt Q9HYQ6)", "test": "cross-linking; in vivo disulfide-bond formation, time course: cells in ice-cold PBS with 0.2 mM 4-DPS for 0, 2, 5, 15, 30, 60, 90 and 120 min; immunoblot with the anti-PlpD C-terminal peptide antiserum"}, "[5]": {"target": "PlpD M249C with an N-terminal TwinStrepII tag (P. aeruginosa (strain PA14)) (UniProt Q9HYQ6)", "test": "cross-linking; in vivo disulfide-bond formation: cysteine mutants expressed in P. aeruginosa SEH88; intact cells in ice-cold PBS with 0.2 mM 4-DPS (or ethanol, mock) for 30 min; TCA precipitation, SDS-PAGE, immunoblot with the anti-PlpD C-terminal peptide antiserum"}, "[6]": {"target": "PlpD S118C with an N-terminal TwinStrepII tag (P. aeruginosa (strain PA14)) (UniProt Q9HYQ6)", "test": "cross-linking; in vivo disulfide-bond formation: cysteine mutants expressed in P. aeruginosa SEH88; intact cells in ice-cold PBS with 0.2 mM 4-DPS (or ethanol, mock) for 30 min; TCA precipitation, SDS-PAGE, immunoblot with the anti-PlpD C-terminal peptide antiserum"}, "[7]": {"target": "PlpD V113C with an N-terminal TwinStrepII tag (P. aeruginosa (strain PA14)) (UniProt Q9HYQ6)", "test": "cross-linking; in vivo disulfide-bond formation: cysteine mutants expressed in P. aeruginosa SEH88; intact cells in ice-cold PBS with 0.2 mM 4-DPS (or ethanol, mock) for 30 min; TCA precipitation, SDS-PAGE, immunoblot with the anti-PlpD C-terminal peptide antiserum"}},
  "data": [
    {"substance": "PlpD I117C with an N-terminal TwinStrepII tag (from UniProt Q9HYQ6 1-728) (natural protein)", "values": [
      {"measurement": "percent intermolecular disulfide bond formation", "setting": "[1]", "result": 84, "unit": "%"}
    ]},
    {"substance": "PlpD I532C with an N-terminal TwinStrepII tag (from UniProt Q9HYQ6 1-728) (natural protein)", "values": [
      {"measurement": "percent intermolecular disulfide bonding, peak of the time course", "setting": "[2]", "result": 63, "unit": "%"},
      {"measurement": "percent of PlpD in intermolecular disulfide-bonded form (30 min 4-DPS)", "setting": "[3]", "result": 65, "unit": "%"},
      {"measurement": "stoichiometry N", "setting": "[3]", "result": 2}
    ]},
    {"substance": "PlpD M249C with an N-terminal TwinStrepII tag (from UniProt Q9HYQ6 1-728) (natural protein)", "values": [
      {"measurement": "percent intermolecular disulfide bonding, plateau of the time course (60-90 min)", "setting": "[4]", "result": 91.5, "unit": "%"},
      {"measurement": "percent of PlpD in intermolecular disulfide-bonded form (30 min 4-DPS)", "setting": "[5]", "result": 65, "unit": "%"},
      {"measurement": "stoichiometry N", "setting": "[5]", "result": 2}
    ]},
    {"substance": "PlpD S118C with an N-terminal TwinStrepII tag (from UniProt Q9HYQ6 1-728) (natural protein)", "values": [
      {"measurement": "percent intermolecular disulfide bond formation", "setting": "[6]", "result": 84, "unit": "%"}
    ]},
    {"substance": "PlpD V113C with an N-terminal TwinStrepII tag (from UniProt Q9HYQ6 1-728) (natural protein)", "values": [
      {"measurement": "percent intermolecular disulfide bond formation", "setting": "[7]", "result": 84, "unit": "%"}
    ]}
  ]
}
